{"source": "patent US7037667", "tested_on": "fluorescein thiocarbamoyl-labeled (FTC) casein"}
{"substance": "GST-TMPRSS2 protease domain (AA 255-492)", "values": [{"measurement": "protease activity, fluorescence of FTC-casein (EnzChek protease assay)", "result": "purified recombinant GST-20P1F12/TMPRSS2 can cleave a universal substrate, namely casein in a dose dependent manner"}]}
